Results taken from the supplement of paper PMC7125110.
± gives the standard error. This sample holds only a part of the variants without activity.

B1: glmS ribozyme (parent)
chain: AUAAAAGCGCCAGAACUACAGAAAUGUAGUUGACGAGGAGGAGGUUUAUCGAAUUUUCGGCGGAUGCCUCCAAA

Variants of: B1
Experiment: self-cleavage kobs at 640 uM GlcN6P; higher = faster cleavage; RNA array
Details: with glucosamine-6-phosphate
How it was run: (§1)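 Tiles bearing barcoded ribozyme variants, transcribed in situ by E. coli RNA polymerase on sequenced MiSeq chips, were imaged over ~14 h at 37 °C using a hybridised Cy3 probe. Glucosamine-6-phosphate was supplied at 40 μM to 10 mM in HEPES/KCl/Mg(OAc)2 buffer. kobs came from one- or two-exponential decay fits to normalised per-tile medians, and weighted Michaelis–Menten fits then provided kcat and KM.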
For C10A C16U C67G, the “self-cleavage kobs at 640 uM GlcN6P” value was 0.000345 ± 0.00015 s⁻¹. In the case of G29C G43U A48G C71A, the “self-cleavage kobs at 640 uM GlcN6P” value is reported as under 1e-05 s⁻¹. In the case of U45A U54A G60A G66C, the “self-cleavage kobs at 640 uM GlcN6P” value is reported as under 1e-05 s⁻¹. With G9C U65C C68U the “self-cleavage kobs at 640 uM GlcN6P” value was under 1e-05 s⁻¹. In the case of A6G G38A C68G, the “self-cleavage kobs at 640 uM GlcN6P” value is reported as under 1e-05 s⁻¹. In the case of G35C G59U C61A, the “self-cleavage kobs at 640 uM GlcN6P” value is reported as under 1e-05 s⁻¹. For G29A G35U, the “self-cleavage kobs at 640 uM GlcN6P” value was under 1e-05 s⁻¹. For G13C U56A C58G C71U, the “self-cleavage kobs at 640 uM GlcN6P” value was 3.8e-05 ± 1.2e-05 s⁻¹. A6G U31G U45A A53G C61A G66C was tested, and the “self-cleavage kobs at 640 uM GlcN6P” value was under 1e-05 s⁻¹. A36U C61G C70A was tested, and the “self-cleavage kobs at 640 uM GlcN6P” value was 0.000101 ± 3e-05 s⁻¹. A42U C70A C71G was tested, and the “self-cleavage kobs at 640 uM GlcN6P” value was under 1e-05 s⁻¹. In the case of A42U G51U A52C C70G, the “self-cleavage kobs at 640 uM GlcN6P” value is reported as under 1e-05 s⁻¹. A12C A33C G40U G63U C68U was tested, and the “self-cleavage kobs at 640 uM GlcN6P” value was under 1e-05 s⁻¹. With A6G G7A G13U A15C C68A C70A the “self-cleavage kobs at 640 uM GlcN6P” value was under 1e-05 s⁻¹. With A33U U55C C70U the “self-cleavage kobs at 640 uM GlcN6P” value was under 1e-05 s⁻¹. With A6G U49A the “self-cleavage kobs at 640 uM GlcN6P” value was under 1e-05 s⁻¹. In the case of G7U G13A G29U, the “self-cleavage kobs at 640 uM GlcN6P” value is reported as under 1e-05 s⁻¹. For A12U G32C G35C A42U, the “self-cleavage kobs at 640 uM GlcN6P” value was under 1e-05 s⁻¹. For G9U U56G U65C C67G, the “self-cleavage kobs at 640 uM GlcN6P” value was under 1e-05 s⁻¹. C11G G41C U45G was tested, and the “self-cleavage kobs at 640 uM GlcN6P” value was under 1e-05 s⁻¹. In the case of G37U G51A G66C, the “self-cleavage kobs at 640 uM GlcN6P” value is reported as under 1e-05 s⁻¹. In the case of G37A A53G A64G, the “self-cleavage kobs at 640 uM GlcN6P” value is reported as 0.000552 ± 9.7e-05 s⁻¹. In the case of G29U U56C C61G, the “self-cleavage kobs at 640 uM GlcN6P” value is reported as under 1e-05 s⁻¹. In the case of A14G C34U, the “self-cleavage kobs at 640 uM GlcN6P” value is reported as under 1e-05 s⁻¹. For A14U A15U G29C C67U C70G, the “self-cleavage kobs at 640 uM GlcN6P” value was 0.00266 ± 0.001 s⁻¹. C34U A39U was tested, and the “self-cleavage kobs at 640 uM GlcN6P” value was under 1e-05 s⁻¹.

Variants of: B1
Experiment: self-cleavage kobs at 2500 uM GlcN6P; higher = faster cleavage; RNA array
Details: with glucosamine-6-phosphate
How it was run: as §1
In the case of G29C G43U A48G C71A, the “self-cleavage kobs at 2500 uM GlcN6P” value is reported as under 1e-05 s⁻¹. U30C G37C G38C C61U was tested, and the “self-cleavage kobs at 2500 uM GlcN6P” value was under 1e-05 s⁻¹. In the case of A15C G37U G40C, the “self-cleavage kobs at 2500 uM GlcN6P” value is reported as under 1e-05 s⁻¹. For G29A G35U, the “self-cleavage kobs at 2500 uM GlcN6P” value was under 1e-05 s⁻¹. G13C U56A C58G C71U was tested, and the “self-cleavage kobs at 2500 uM GlcN6P” value was 6.28e-05 ± 1.9e-05 s⁻¹. In the case of G26U G66U, the “self-cleavage kobs at 2500 uM GlcN6P” value is reported as 0.000774 ± 0.00023 s⁻¹. In the case of C16A G29U C68U C71U, the “self-cleavage kobs at 2500 uM GlcN6P” value is reported as 6.71e-05 ± 2.1e-05 s⁻¹. A12C A33C G40U G63U C68U was tested, and the “self-cleavage kobs at 2500 uM GlcN6P” value was under 1e-05 s⁻¹. C11A G37C G38U was tested, and the “self-cleavage kobs at 2500 uM GlcN6P” value was under 1e-05 s⁻¹. With G38A A39U A64C the “self-cleavage kobs at 2500 uM GlcN6P” value was under 1e-05 s⁻¹. G7U G13A G29U was tested, and the “self-cleavage kobs at 2500 uM GlcN6P” value was under 1e-05 s⁻¹. G38U U45G G51A C67U was tested, and the “self-cleavage kobs at 2500 uM GlcN6P” value was under 1e-05 s⁻¹. For C11A U54C C58A G66C, the “self-cleavage kobs at 2500 uM GlcN6P” value was under 1e-05 s⁻¹. With G13A G29U G60U G66A the “self-cleavage kobs at 2500 uM GlcN6P” value was under 1e-05 s⁻¹. In the case of G37A A53G A64G, the “self-cleavage kobs at 2500 uM GlcN6P” value is reported as 0.00103 ± 0.0003 s⁻¹. In the case of G63C A64C C67A, the “self-cleavage kobs at 2500 uM GlcN6P” value is reported as under 1e-05 s⁻¹. In the case of C34U A39U, the “self-cleavage kobs at 2500 uM GlcN6P” value is reported as under 1e-05 s⁻¹.

Variants of: B1
Experiment: self-cleavage kobs at 10000 uM GlcN6P; higher = faster cleavage; RNA array
Details: with glucosamine-6-phosphate
How it was run: as §1
G29A G35U was tested, and the “self-cleavage kobs at 10000 uM GlcN6P” value was under 1e-05 s⁻¹. For A6G U49A, the “self-cleavage kobs at 10000 uM GlcN6P” value was under 1e-05 s⁻¹. For G7U G13A G29U, the “self-cleavage kobs at 10000 uM GlcN6P” value was under 1e-05 s⁻¹. For G37A A53G A64G, the “self-cleavage kobs at 10000 uM GlcN6P” value was 0.00293 ± 0.0007 s⁻¹. With A14G C34U the “self-cleavage kobs at 10000 uM GlcN6P” value was under 1e-05 s⁻¹. In the case of C34U A39U, the “self-cleavage kobs at 10000 uM GlcN6P” value is reported as under 1e-05 s⁻¹.
